The source of these data is the nanobody polyreactivity screen of Harvey et al. (2022).

This series in a line: yeast display, Sf9 membrane polyspecificity reagent, FACS + sequencing; frameworks hold sequencing errors. The procedure, abridged:
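Nanobodies came from a synthetic yeast display library in Saccharomyces cerevisiae BJ5465, induced with galactose for 36–48 hours and stained for 1 hour at 4 °C with 10% biotinylated, detergent-solubilized Sf9 membrane reagent. Cells were enriched on streptavidin microbeads and then FACS-sorted, with low and high (top ~1%) gates set on anti-HA fluorescence for expression and streptavidin fluorescence for reagent binding. Each polyreactivity label reflects the gate a clone came from. Genes were amplified by colony PCR, sequenced by MiSeq 2 × 250 and filtered by CDR length.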
For the sequence “QVQRVESGGGLVQAGGSLRLTSAASGSTFGTNAMGWYRQAPGTERELVATISKSGGSTYYADSVKGRFTISRDNAKNTVYLQMNSLKPEANAVYYCARRYRDYGRYGYWGQGTEVTVSS”, the “polyreactivity (PSR sort gate)” value is reported as “high polyreactivity”.

For the sequence “QVQRVESGGGLVQAGGTLRLSCAASGRIFWYNAMGWSRQAPGKERELVAVISTRGGRTYYADSVKGRFTISRDNAKNTVYLQMNSLKPEDTAVYYCAAEFLNKAVGGVTSIYDSWGQGTQVTVSS”, the “polyreactivity (PSR sort gate)” value is on record as “low polyreactivity”.

Consider “QVQRVESGGGLVQARASLRLSCAASGSIFPHYAMGWYRQAPGKERDLVATIRSRSGSTYYADSVKGRFTISRDNAKNTVYLQMNSLKPEDTAVYYCAARYYKERYWGQGTQVTVSS”, for which the “polyreactivity (PSR sort gate)” value was “low polyreactivity”. “QVQRVESGGGLVQEGRSLRLSCAASGFIFSVYAMGWYRQAQGKERELVAAMTWNGGRTYYADSVKGRFRISRDHAKNTVYLQMNSVKPEDTAVYYCAADSRGALNSVYRYGSIVEGDYWGQGTQVTVSS”: the “polyreactivity (PSR sort gate)” value is reported as “low polyreactivity”. The entry for “QVQRVESGGRLVQAGGSLRLSCAACGSTFPGNAMGWYRQAPGKERELVAAISSSGGSTDYADSVKGRFTCSRDNAKNTVYLQLNRLKPEDTAVYSCATKYRFCTYRDIAYPYDYWGQGPQVTVSS” is “low polyreactivity”; for “QVQRVESGGRLVQAGGSLRLSCAASGSTFPSYAMGWSRQAPGKERELVAAISWSGGTTYYADSVKGRFTISRDNAKNTVYLQMNSLKPEDTAVYYCAAGGRRQAYGRRDYWGQGNQVTVSS” it is “high polyreactivity”. The entry for “QVQRVESGVGIVQAGGSLRLSSAASGFIFSRYAMGWYRQAPGNERQLVAAIRFSGSITYYADSVKGRFTISRDNAKNTVYLQMNSLKPEDTAVYYCAAPLTFFKRVYYWGQGTQLTVSS” is “high polyreactivity”; for “QVQRVETGGGLVQAGGSLRLSCAASGRTIRVYAMGWYRQPPGKETELVPAISGSGGSTYYADSVKGRFTISRDNAKNTVYLQMNSLKPEDTAVYFCYAASWTFQTTPKYDYWGQGTLVTVSS” it is “high polyreactivity”; for “QVQVVDSGGGLVQAGGSLRLSCAASGSIFYVYAMGWYRQAPGKVWEFVAAIRWFSGSTYYADSVKWRYTISRDNAKNTVYLQMNSLKPEDTAVYYCAARKYKQGRFKYDYWGQGTQVTVSS” it is “high polyreactivity”. Turning to “QVQVVESGGGIVKAGGSLRLSCAPSGSTFYYYAMGWYRQAPRKERELVATISWSGDSTYADSVKGRFTISRDNSKNTVYLQLTSLKPEDTAVYYCATCGDWWGFRYDYWGQCTQVTVSS”, the “polyreactivity (PSR sort gate)” value is reported as “low polyreactivity”. For the sequence “QVQVVESGGGLVHAVCSLRLSCAASGRIFSTYALGLYRPAPGKERELVAAISSSGARTYYADSVKGRFTISRDNAKNNVYLQMNSLKPEDTSVYYCAAPPYNRPGYGYDYWGQGTQVTVSS”, the “polyreactivity (PSR sort gate)” value is given as “high polyreactivity”. The entry for “QVQVVESGGGLVQAGCSLRLSCAASGSTFQANDMGLYRQAPGKERELVAAISTGGSSTYYADSVKGRFTISRDNEKNTFFLQMNSLKPEDTAVYYCAVDGLGGREGYWGQGTQVTVSS” is “high polyreactivity”; for “QVQVVESGGGLVQAGGSLRLICAASGRIFDSNAMGWYRQEPVKERELVARIDPGDDTNSADSVKGRFTISRDNAKNTLYLQMNSLKPEDTAVYYCATDPDYVLYRTAYYEYDYWGQGTQVTVSS” it is “low polyreactivity”. For “QVQVVESGGGLVQAGGSLRLSCAASGFTFPYYALGLYRQAPGKERELVAAITTGGSTYYSDSVKGRFTISRDNAKNTVYLQMNSLKPEDTAVYYCATGPSLWYRSSFRGEGDYWGQGTQVTVSS” the value was “low polyreactivity”. As to “QVQVVESGGGLVQAGGSLRLSCAASGLIFVYYAMGWYRQAPGKERELVAGITRGGGTNYADSVKGRFTISRDNAKNSFYLQMNSLKPEDTAVYYCAADDLPGMDYWGQGTQVTVSS”, the “polyreactivity (PSR sort gate)” value is on record as “low polyreactivity”. The entry for “QVQVVESGGGLVQAGGSLRLSCAASGRIFNRNAMGWYRQAPGKERELVAAITRGGRTNYADSVKGRFRISRDNAQNTVYLQMNSLKPEDTAVYYCAAAYYGSHGRYDYWGQGTQVTVSS” is “high polyreactivity”; for “QVQVVESGGGLVQAGGSLRLSCAASGRIFYVYAMGWYRQAPGKERELVAAITISGGSTYYADSVKGRFTISRDNAKNTVYLQMNSLKPEDTAVYYCATDRSSHWYDYWGQGTQVTVSS” it is “low polyreactivity”. For the sequence “QVQVVESGGGLVQAGGSLRLSCAASGRTFYPYAMGWYRQAPGKERELVAAISSSGGSTYYADSVKGRFTISRDNAKNTDYLPMNSLKPEDTAVYYCAAVASKYKYTGGMDYWGQGTQVTVSS”, the “polyreactivity (PSR sort gate)” value was “high polyreactivity”. Turning to “QVQVVESGGGLVQAGGSLRLSCAASGSIFDRNAMGWYRKAPGKERELVAGISRSGGSTNYADSVKGRFTISRDNAKNPVYLQMNSLNPEDTAVYYCAASRVVWVGRPWYQVRGDYWGQGTQVTVSS”, the “polyreactivity (PSR sort gate)” value is “high polyreactivity”. For “QVQVVESGGGLVQAGGSLRLSCAASGSIFPVYAMGWYRQAPGKERELVAAISSGGSTNYADSVKGRFTISRDNAKNTVYLQRNSLKPEDTAVYYSARRWYYVRHGYWGQGTQVTVSS” the value was “high polyreactivity”. The entry for “QVQVVESGGGLVQAGGSLRLSCAASGSIFRDNAMGCYRQAPGKERELVASIRSSGGRTYYADSVKGRFTISRDNAKNTVYLQMNSLKPEDTAVYYCARRWYPVTPYARMYYWGQGTQVTVSS” is “low polyreactivity”. Turning to “QVQVVESGGGLVQAGGSLRLSCAASGSTFEYNAMGWYRQAPGKERELVASSTNYADSVKGRFTISRDNATNTVYLKMNSLKPEDTAVYYCAREQGVNRNHDYWGQGTQVTVSS”, the “polyreactivity (PSR sort gate)” value is “low polyreactivity”. For “QVQVVESGGGLVQAGGSLRLSCAASGSTFSWYAIGWYIQAPGKDRELVARISSGDRTNYADSVKGRFTITRDNAKNNVYLEMNSQKPEDTAVYYCNADYGQPSYYDDGDYWGQGTQVTVSS” the value was “low polyreactivity”; for “QVQVVESGGGLVQAGGSLRLSCAGSGSIFYFYAMGWSRQAPGKARELVATITSGGRTYYADSVKGRFTISRDNAKNTVYLQMISLKPEDTAVYYCNSRPVSYRYSSYIFNYWGQGTQVTVSS”, “high polyreactivity”. For “QVQVVESGGGLVQEGGSLRLSCSASGRIFGVNAMGWYRKAPGKERELFAAISRSGGSTYYADSVKGRFTISRDNEKNTVYLQMNSLNPEDTAVYYCAAGGRRYDDDYWGQGTQVTVSS” the value was “high polyreactivity”. For “QVRLLETGGGLVQAGGSLRLSCAPSGSTFTDYDMGWYRPAPGKERELVAAITSGGSTNYADSVKGSFTISRDNAKNTVYLQMNRLKPEDTAVYYCAASYWDTEPGYREYDYWGQGTLVTVSS” the value was “low polyreactivity”; for “QVRLQESGGGLVQAGGSLRLSCAASGSISLTYYMDWSRQAPCTVREFVATITAGATTNYADSVKGRFTISRDNAKNTVYPQMNSLKPEDTEVYYSAVRAEHQVTLIYLGQGTQVTVSS”, “low polyreactivity”; for “QVRLVESGGGLVQAGGSLRLSCAASGRIFGYYTMGWYRQAPGKERELVADNNRDGSTYADSVKGRFTLSRDNAKNTVYLQMNSLKPEDTAVYYCNAQYDSAYGLGFFIGYFSQYDYWGQGTQVTVSS”, “low polyreactivity”. As for “QVRLVESGGGLVQAGGSLRLSCAASGRIFVYNAMGWYRQPPGKERELVASISWSGDSTYADSVKGRFTISRDNAKNTVYLQMNSLKPEDTAVYYCAAYSQADYQNMDYWGQGTQVTVSS”, the “polyreactivity (PSR sort gate)” value is recorded as “low polyreactivity”. The entry for “QVRLVESGGGLVQAGGSLRLSCAASGSIFYFNAMGWYRQAPGKERELVATIRYRGGRTYADSVKGRFTISRDNAKNTVYLQMNSLKPEDTAVYFCNTYARYAYLTGRMDYWGQGTQVTVSS” is “high polyreactivity”; for “QVRLVESGGGLVQAGGSLRLSCAASGSTFNNYDMGWYRQAPGKERELVAAYADSVKGRFTISRDNAKNTVYLQMNRLKPEDTADYYCAAVREKTLYYLSRFDYWGQGTQVTVSS” it is “low polyreactivity”. For “QVRLVESGGGLVQAGGSLRLSCAASGSTFQINAMGWYRQAPGKEREFVAAITVSSGSTYYADSVKGRFTISRDNAKNTVYLQMNSLKPEDTAVYYCAATSKPLGLQTYGYWGQGTQVTVSS” the value was “low polyreactivity”; for “QVRLVESGGGLVQAGGSLRLSCADSGSTFTTYAIGWYRQEPGKERELVAAISSGGDTKYADSVKGRFTISRDNAKNTVYLQMNSLKPEDTAVYYWNVVSFRYYYKYGYCGQGTQVTVSS”, “high polyreactivity”. As to “QVTLVESGGGLVQAGGSLRLSCAASVLIFYSYAMGWYRQAPGKERELVAAISSGTRTYYADSVKGRFTISRDNAKNTVYLQMNSLKPEDTAVYYCAAVDAHKKRYPPSGRLYGYWGHGTQVTVSS”, the “polyreactivity (PSR sort gate)” value was “high polyreactivity”.

For “WLLLMGWYRQPPGEERELVAGINDGASTNDADSVKGRFTISRDNARNTVYLKMNSLKPGDTAVYYCAGWQPVLIWFYYWGQGTQVTVSS”, the “polyreactivity (PSR sort gate)” value is “high polyreactivity”.
